# Test results published in the MegaScale stability set (Tsuboyama et al. 2023).
# B1: EHEE_rd2_1257 (parent)
# chain: EEERTFTNEEEARKAKKEAEKRGLRVTVTKDGTTWRVRIG
# Variants of: B1
# Test: folding stability dG (cDNA display proteolysis); higher = more stable
# Conditions: PBS, room temperature
row,Variant,folding stability dG [kcal/mol]
1,IEERTFTNEEEARKAKKEAEKRGLRVTVTKDGTTWRVRIG [E1I],2.74
2,EEERTFTNEEEARKAKKEAEKRGLRVTVTKDGTTTRVRIG [W35T],0.358
3,EEERTFTNEEEARKAKKEAEKRGLRVTVTKDGTTNRVRIG [W35N],-0.29
4,EEERTFTNEEEARKAKKEAEKRGLRVTVTKDGTTYRVRIG [W35Y],1.35
5,EEERTFTNEEEARKAKKEAEKRGLRVTVTKDGTTMRVRIG [W35M],0.332
6,EEERTFTNEEEARYAKKEAEKRGLRVTVTKDGTTWRVRIG [K14Y],2.02
7,EEERTFTNEEEARIAKKEAEKRGLRVTVTKDGTTWRVRIG [K14I],2
8,EEERTFTNEEEARKAKKEAEKRGLRVTVTRDGTTWRVRIG [K30R],2.04
9,EEERTFTNEEEARKAKKEAEKRGLRVTVTTDGTTWRVRIG [K30T],2.57
10,EEERTFTNEEEARKAKKEAEKRGLRVTVTGDGTTWRVRIG [K30G],1.32
11,EEERTFTNEEEARKAKKEAEKRGLRVTVTKDGTTWRVRWG [I39W],1.62
12,EEERTFTNEYEARKAKKEAEKRGLRVTVTKDGTTWRVRIG [E10Y],2.21
13,EEERTFTNEEEARKAKKEAEGRGLRVTVTKDGTTWRVRIG [K21G],2.11
14,EEERTFTNEEEARKAKKEAEERGLRVTVTKDGTTWRVRIG [K21E],2.25
15,EEERTFTNEEEARKAKKEAEMRGLRVTVTKDGTTWRVRIG [K21M],2.45
16,EEERTFTNEEEARKAKKEAEYRGLRVTVTKDGTTWRVRIG [K21Y],1.82
17,EEERTFLNEEEARKAKKEAEKRGLRVTVTKDGTTWRVRIG [T7L],1.79
18,EEERTFSNEEEARKAKKEAEKRGLRVTVTKDGTTWRVRIG [T7S],1.91
19,EEERTFHNEEEARKAKKEAEKRGLRVTVTKDGTTWRVRIG [T7H],1.86
20,EEERTFKNEEEARKAKKEAEKRGLRVTVTKDGTTWRVRIG [T7K],1.63
21,EEERTFTNYEEARKAKKEAEKRGLRVTVTKDGTTWRVRIG [E9Y],2.73

row,Variant,folding stability dG [kcal/mol]
1,EEERTFTNREEARKAKKEAEKRGLRVTVTKDGTTWRVRIG [E9R],1.77
2,EEERTFTNKEEARKAKKEAEKRGLRVTVTKDGTTWRVRIG [E9K],1.58
3,EEERTFTNEEEARKAKKEAEKMGLRVTVTKDGTTWRVRIG [R22M],2.18
4,EEERTFTNEEEARKAKKEAEKFGLRVTVTKDGTTWRVRIG [R22F],1.62
5,EEERTFTNEEEARKAKKEAEKLGLRVTVTKDGTTWRVRIG [R22L],2.19
6,EEERTFTNEEEARKAKKEAEKIGLRVTVTKDGTTWRVRIG [R22I],1.59
7,EEERTFTNEEEARKAKKEAEKYGLRVTVTKDGTTWRVRIG [R22Y],1.69
8,EEERTFTNEEEARKAKKEAEKPGLRVTVTKDGTTWRVRIG [R22P],-0.245
9,EEERTYTNEEEARKAKKEAEKRGLRVTVTKDGTTWRVRIG [F6Y],2.19
10,EEERTFTNEEEAQKAKKEAEKRGLRVTVTKDGTTWRVRIG [R13Q],2.32
11,EEERTFTNEEEAGKAKKEAEKRGLRVTVTKDGTTWRVRIG [R13G],1.37
12,EEERTFTNEEEAVKAKKEAEKRGLRVTVTKDGTTWRVRIG [R13V],2.26
13,EEERTFTNEEEAMKAKKEAEKRGLRVTVTKDGTTWRVRIG [R13M],3.15
14,EEERTFTNEEEATKAKKEAEKRGLRVTVTKDGTTWRVRIG [R13T],2.12
15,EEERTFTAEEEARKAKKEAEKRGLRVTVTKDGTTWRVRIG [N8A],1.07
16,EEERTFTWEEEARKAKKEAEKRGLRVTVTKDGTTWRVRIG [N8W],0.726
17,EEERTFTREEEARKAKKEAEKRGLRVTVTKDGTTWRVRIG [N8R],1.49
18,EEERTFTLEEEARKAKKEAEKRGLRVTVTKDGTTWRVRIG [N8L],1.52
19,EEERTFTQEEEARKAKKEAEKRGLRVTVTKDGTTWRVRIG [N8Q],1.12
20,EEERRFTNEEEARKAKKEAEKRGLRVTVTKDGTTWRVRIG [T5R],1.52
21,EEERTFTNEEEARKAKKEAEKRGLRVTVTKDGTTWRPRIG [V37P],0.556

row,Variant,folding stability dG [kcal/mol]
1,EEERTFTNEEEARKAKKEAEKRGLRVTVTKDGTTWRYRIG [V37Y],-0.22
2,EEERTFTNEEEARKAKKEAEKRGLRTTVTKDGTTWRVRIG [V26T],0.897
3,EEERTFTNEEEARKAKKEAEKRGLRFTVTKDGTTWRVRIG [V26F],0.359
4,EEERTFTNEEEARKAKKEAEKRGLRWTVTKDGTTWRVRIG [V26W],0.008
5,EEERTFTNEEEARKAKKEAEKRGLRYTVTKDGTTWRVRIG [V26Y],0.032
6,EEERTFTNEEEARKAKKEAEKRGLRMTVTKDGTTWRVRIG [V26M],0.445
7,EEEVTFTNEEEARKAKKEAEKRGLRVTVTKDGTTWRVRIG [R4V],1.96
8,EEEPTFTNEEEARKAKKEAEKRGLRVTVTKDGTTWRVRIG [R4P],0.462
9,EEERTFTNEEEARKAKKEAEKRGMRVTVTKDGTTWRVRIG [L24M],1.79
10,EEERTFTNEEEARKAKKEAEKRGIRVTVTKDGTTWRVRIG [L24I],1.16
11,EEERTFTNEEEARKASKEAEKRGLRVTVTKDGTTWRVRIG [K16S],1.99
12,EEERTFTNEEEARKAHKEAEKRGLRVTVTKDGTTWRVRIG [K16H],1.53
13,EEERTFTNEEEARKAIKEAEKRGLRVTVTKDGTTWRVRIG [K16I],2.99
14,EEERTFTNEEEARKAGKEAEKRGLRVTVTKDGTTWRVRIG [K16G],2.33
15,EEERTFTNEEEARKAEKEAEKRGLRVTVTKDGTTWRVRIG [K16E],2.31
16,EEERTFTNEEEARKSKKEAEKRGLRVTVTKDGTTWRVRIG [A15S],0.987
17,EEERTFTNEEEARKFKKEAEKRGLRVTVTKDGTTWRVRIG [A15F],3.5
18,EEERTFTNEEEARKYKKEAEKRGLRVTVTKDGTTWRVRIG [A15Y],3.31
19,EEERTFTNEEEARKAKKEAEKRGLWVTVTKDGTTWRVRIG [R25W],1.98
20,EEERTFTNEEEARKAKKEAEKRGLAVTVTKDGTTWRVRIG [R25A],1.62
21,EEERTFTNEEEARKAKKEAEKRGLFVTVTKDGTTWRVRIG [R25F],2.07
